Test results published in US12053530B2, “Plectin-1 binding antibodies and uses thereof” (ZIELBIO, INC., priority 2017, dated 2024).

Molecular target: plectin-1 (human recombinant protein) (Homo sapiens, UniProt Q15149)
Assay: Affinity of anti-plectin-1 antibodies (FIGS. 1A-1B)
Format: binding
Settings: human recombinant protein and pancreatic cell lines
Description: FIGS. 1A-1B show representative data for affinity and specificity of an anti-plec1 antibody on human recombinant protein (FIG. 1A) and human (YapC and L3.6pl) and mouse (Han14.3) pancreatic cell lines (FIG. 1B).

Sequence of plectin-1 (human recombinant protein) (Q15149 whole entry): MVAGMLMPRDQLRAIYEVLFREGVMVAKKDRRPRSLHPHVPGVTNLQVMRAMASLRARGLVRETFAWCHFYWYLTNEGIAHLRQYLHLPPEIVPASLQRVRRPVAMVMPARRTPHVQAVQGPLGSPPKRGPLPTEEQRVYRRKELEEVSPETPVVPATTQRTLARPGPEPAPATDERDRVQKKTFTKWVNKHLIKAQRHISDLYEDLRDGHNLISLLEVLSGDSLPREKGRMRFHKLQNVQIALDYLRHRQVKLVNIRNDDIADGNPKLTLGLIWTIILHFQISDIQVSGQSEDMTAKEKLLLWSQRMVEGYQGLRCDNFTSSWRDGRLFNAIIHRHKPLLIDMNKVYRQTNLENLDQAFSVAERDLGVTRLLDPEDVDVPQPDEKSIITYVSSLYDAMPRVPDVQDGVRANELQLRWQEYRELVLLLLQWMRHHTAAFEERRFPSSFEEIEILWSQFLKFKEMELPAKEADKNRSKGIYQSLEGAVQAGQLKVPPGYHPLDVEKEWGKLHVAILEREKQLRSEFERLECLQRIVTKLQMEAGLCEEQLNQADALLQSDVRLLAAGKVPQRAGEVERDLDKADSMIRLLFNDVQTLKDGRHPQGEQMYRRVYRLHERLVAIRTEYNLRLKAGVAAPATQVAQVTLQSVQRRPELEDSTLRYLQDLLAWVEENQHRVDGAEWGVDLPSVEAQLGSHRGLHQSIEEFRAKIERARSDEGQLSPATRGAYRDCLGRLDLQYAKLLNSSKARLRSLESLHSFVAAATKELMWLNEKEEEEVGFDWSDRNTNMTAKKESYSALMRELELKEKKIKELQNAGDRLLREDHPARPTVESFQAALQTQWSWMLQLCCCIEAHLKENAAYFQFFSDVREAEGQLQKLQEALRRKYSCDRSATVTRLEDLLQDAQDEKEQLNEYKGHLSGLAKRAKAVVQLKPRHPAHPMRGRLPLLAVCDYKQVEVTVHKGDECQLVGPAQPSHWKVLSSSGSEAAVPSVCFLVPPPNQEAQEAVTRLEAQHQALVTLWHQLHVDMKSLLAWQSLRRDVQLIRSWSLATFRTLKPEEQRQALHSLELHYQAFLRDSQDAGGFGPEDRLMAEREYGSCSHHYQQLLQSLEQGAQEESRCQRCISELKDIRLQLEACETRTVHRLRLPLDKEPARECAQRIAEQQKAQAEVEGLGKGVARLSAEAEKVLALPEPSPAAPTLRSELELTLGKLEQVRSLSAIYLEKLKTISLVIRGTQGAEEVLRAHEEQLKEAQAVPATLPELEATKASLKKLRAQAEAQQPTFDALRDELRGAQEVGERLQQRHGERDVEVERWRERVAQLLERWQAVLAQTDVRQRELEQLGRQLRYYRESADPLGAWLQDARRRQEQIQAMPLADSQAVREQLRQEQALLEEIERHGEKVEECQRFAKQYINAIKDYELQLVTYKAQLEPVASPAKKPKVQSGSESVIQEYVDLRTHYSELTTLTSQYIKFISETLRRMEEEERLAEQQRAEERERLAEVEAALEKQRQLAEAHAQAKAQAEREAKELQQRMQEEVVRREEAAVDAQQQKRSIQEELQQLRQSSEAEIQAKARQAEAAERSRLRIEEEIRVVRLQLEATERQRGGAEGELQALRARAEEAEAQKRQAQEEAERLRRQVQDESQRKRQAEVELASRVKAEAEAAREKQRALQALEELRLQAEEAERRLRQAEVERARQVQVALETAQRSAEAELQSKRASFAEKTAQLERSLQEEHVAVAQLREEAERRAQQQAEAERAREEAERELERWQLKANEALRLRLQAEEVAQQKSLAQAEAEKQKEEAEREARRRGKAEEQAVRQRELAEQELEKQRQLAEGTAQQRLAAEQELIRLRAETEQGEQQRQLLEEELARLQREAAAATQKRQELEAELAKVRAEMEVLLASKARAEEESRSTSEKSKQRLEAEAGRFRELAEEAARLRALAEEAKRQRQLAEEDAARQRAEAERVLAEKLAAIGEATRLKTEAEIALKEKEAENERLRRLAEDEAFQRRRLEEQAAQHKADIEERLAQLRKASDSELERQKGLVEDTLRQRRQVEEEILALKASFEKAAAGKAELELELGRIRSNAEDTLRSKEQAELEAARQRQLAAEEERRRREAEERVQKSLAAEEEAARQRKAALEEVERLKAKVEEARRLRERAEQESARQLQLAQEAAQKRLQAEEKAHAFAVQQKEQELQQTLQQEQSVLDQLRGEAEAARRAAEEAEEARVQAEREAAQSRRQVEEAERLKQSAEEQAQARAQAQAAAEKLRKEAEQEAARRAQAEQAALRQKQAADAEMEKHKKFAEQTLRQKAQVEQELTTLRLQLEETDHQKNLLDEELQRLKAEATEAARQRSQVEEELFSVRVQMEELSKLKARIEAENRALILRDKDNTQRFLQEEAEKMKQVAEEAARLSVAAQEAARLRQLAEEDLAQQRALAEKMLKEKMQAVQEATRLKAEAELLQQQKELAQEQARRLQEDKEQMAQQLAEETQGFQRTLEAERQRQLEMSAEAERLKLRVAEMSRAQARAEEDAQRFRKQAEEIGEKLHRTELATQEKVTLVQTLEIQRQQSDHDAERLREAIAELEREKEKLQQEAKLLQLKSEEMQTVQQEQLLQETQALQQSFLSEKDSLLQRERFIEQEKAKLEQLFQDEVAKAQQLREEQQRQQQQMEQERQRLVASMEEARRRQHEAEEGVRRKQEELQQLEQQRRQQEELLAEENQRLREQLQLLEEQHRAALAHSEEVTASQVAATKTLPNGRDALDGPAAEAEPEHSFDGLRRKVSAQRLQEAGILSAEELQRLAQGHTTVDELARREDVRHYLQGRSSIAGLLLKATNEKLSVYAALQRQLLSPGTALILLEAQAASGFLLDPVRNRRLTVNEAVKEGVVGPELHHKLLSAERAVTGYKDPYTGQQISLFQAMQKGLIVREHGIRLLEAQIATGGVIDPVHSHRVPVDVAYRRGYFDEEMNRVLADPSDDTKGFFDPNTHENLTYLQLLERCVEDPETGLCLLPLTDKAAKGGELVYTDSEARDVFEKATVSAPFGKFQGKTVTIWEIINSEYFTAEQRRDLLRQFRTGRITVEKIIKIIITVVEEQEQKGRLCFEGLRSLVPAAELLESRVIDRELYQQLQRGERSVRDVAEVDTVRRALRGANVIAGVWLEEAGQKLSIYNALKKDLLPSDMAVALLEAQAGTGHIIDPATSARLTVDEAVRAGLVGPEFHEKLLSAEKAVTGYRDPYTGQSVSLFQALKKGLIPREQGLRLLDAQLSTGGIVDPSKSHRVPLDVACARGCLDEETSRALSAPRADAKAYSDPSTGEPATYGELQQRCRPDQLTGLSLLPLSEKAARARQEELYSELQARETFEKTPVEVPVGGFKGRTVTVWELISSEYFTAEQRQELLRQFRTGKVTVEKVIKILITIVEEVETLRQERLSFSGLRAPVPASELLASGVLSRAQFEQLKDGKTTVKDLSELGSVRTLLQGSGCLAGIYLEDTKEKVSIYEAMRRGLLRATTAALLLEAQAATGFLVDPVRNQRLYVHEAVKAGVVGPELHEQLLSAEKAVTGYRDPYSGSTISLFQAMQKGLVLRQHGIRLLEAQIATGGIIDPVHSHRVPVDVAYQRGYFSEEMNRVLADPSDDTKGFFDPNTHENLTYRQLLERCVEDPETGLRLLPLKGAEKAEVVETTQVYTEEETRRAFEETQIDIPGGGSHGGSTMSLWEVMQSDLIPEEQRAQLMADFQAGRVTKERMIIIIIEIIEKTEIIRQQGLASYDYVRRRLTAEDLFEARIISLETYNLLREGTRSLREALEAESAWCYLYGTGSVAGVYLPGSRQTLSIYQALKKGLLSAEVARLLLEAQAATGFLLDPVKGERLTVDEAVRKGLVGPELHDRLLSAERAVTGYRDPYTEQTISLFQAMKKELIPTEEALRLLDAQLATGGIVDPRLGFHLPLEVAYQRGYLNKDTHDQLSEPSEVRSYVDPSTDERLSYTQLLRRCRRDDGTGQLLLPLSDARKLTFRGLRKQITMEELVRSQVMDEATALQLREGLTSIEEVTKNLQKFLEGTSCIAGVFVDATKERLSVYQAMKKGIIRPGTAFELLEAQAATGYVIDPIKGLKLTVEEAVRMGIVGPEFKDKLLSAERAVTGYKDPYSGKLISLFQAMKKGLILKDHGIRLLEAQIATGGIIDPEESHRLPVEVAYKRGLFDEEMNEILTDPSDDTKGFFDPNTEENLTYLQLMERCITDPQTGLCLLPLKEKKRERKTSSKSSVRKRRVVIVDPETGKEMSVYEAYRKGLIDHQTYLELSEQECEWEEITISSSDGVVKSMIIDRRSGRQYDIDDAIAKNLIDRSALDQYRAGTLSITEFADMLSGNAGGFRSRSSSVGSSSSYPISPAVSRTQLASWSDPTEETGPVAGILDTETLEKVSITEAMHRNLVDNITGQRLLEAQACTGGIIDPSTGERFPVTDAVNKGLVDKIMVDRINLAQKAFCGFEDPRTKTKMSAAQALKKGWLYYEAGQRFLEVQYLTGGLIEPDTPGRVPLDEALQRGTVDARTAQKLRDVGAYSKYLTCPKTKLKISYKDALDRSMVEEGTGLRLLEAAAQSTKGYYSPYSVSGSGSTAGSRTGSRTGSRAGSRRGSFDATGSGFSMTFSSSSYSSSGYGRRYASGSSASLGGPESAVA

affinity among anti-plectin-1 antibodies tested: highest affinity
B1: Pab2: anti-plectin-1 antibody; heavy chain variable region SEQ ID NO: 23, light chain variable region SEQ ID NO: 45 (antibody, V domains shown)
VH: EVQLVESGGDLVKPGGSLKLSCAASGFTFSRYGMSWVRQTPDKRLEWVATISIGGTYTYYPDSMKGRFTISRDNAKNTLYLQMSSLKSEDTAMYYCARRGYGNYSYYGMDYWGQGTSVTVSS
VL: DIVMTQAAFSNPVTLGTSASISCRSSKSLLHSNGITYLYWYLQKPGQSPQLLIYQMSNLASGVPDRFSSSGSGTDFTLRISRVEAEDVGVYYCAQNLELPLTFGAGTKLELK
